Assay results from article PMC8426336.

Molecular target: Trimeric form of SARS-CoV-2 RBD (T-RBD) (SARS-CoV-2 | not stated)
Assay: western blot under reduced and nonreduced conditions

Substance: Trimeric form of SARS-CoV-2 RBD (T-RBD)
- stoichiometry N: 3
